Target: T1, Ebola VP40 (1-326) (Ebola virus (EBOV), UniProt Q05128 1-326)
T1 sequence: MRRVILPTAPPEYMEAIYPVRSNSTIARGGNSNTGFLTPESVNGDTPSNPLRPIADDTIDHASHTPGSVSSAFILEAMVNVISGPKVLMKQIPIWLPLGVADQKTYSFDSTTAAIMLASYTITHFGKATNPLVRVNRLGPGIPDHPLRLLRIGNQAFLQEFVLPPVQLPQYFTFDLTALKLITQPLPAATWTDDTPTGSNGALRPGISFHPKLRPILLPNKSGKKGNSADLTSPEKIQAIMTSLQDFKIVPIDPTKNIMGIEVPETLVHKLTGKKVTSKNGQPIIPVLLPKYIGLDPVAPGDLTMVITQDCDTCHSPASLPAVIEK
Assay: co-immunoprecipitation with anti-Myc antibody from transfected 293T cells

B1: Myc tagged TSG101 truncated at position 140 (other)
chain: MAVSESQLKKMVSKYKYRDLTVRETVNVITLYKDLKPVLDSYVFNDGSSRELMNLTGTIPVPYRGNTYNIPICLWLLDTYPYNPPICFVKPTSSMTIKTGKHVDANGKIYLPYLHEWKHPQSDLLGLIQVMIVVFGDEPP
binding result: no binding

— patent US20040223972A1 (FUNCTIONAL GENETICS, published 2004)
